From US20230340155A1 (published 2023)

Target: T1, cyno PD-1 (SPR analyte) (cynomolgus monkey)
T1 construct: Construct of the soluble analyte is not described; also called cynomolgus PD-1
Experiment: SPR, ProteOn XPR36, mAb captured by anti-human IgG Fc, cyno PD-1 as analyte, 25 C
Method: Affinity measurements were performed using a ProteOn XPR36 system (BioRad). […] Approximately 5000 RU (response units) of mAbs were immobilized. The kinetic experiments were performed at 25° C. in running buffer (DPBS+0.01% P20+100 µg/mL BSA). To perform kinetic experiments, 200 RU of mAbs were captured followed by injections of analytes (human and cyno PD-1) at concentrations ranging from 1.563 nM to 400 nM (in a 4-fold serial dilution). The association phase was monitored for 3 minutes at 50 µL/min, then followed by 10 or 15 minutes of buffer flow (dissociation phase). The chip surface was regenerated with two 18 second pulses of 100 mM H₃PO₄ (Sigma, Cat#7961) at 100 µL/min.
The collected data were processed using ProteOn Manager software. First, the data was corrected for background using inter-spots. Then, double reference subtraction of the data was performed by using the buffer injection for analyte injections. The kinetic analysis of the data was performed using a Langmuir 1:1 binding model. The result for each mAb was reported in the format of ka (On-rate), kd (Off-rate) and KD (equilibrium dissociation constant).
Affinity of the antibodies to human and cyno PD-1 was measured using SPR as described in Example 1.

Binder	Kd	koff	kon
PD1B1085 (antibody, human IgG1, kappa, V domains shown, IgG1; also called PD1H585/PD1L469; E57Y (VH) variant of PD1B878) VH: QVQLVQSGSELKKPGASVKVSCKASGYTFTDYSMHWVRQAPGQGLEWMGWINIETGYPTYAQGFTGRFVFSLDTSVSTAYLQISSLKAEDTAVYFCARDYYGTYFYAMDYWGQGTLVTVSS VL: EIVLTQSPATLSLSPGERATLSCTASSSVSSSYLHWYQQKPGLAPRLLIYSTSNLASGIPDRFSGSGSGTDYTLTISRLEPEDFAVYYCHQYHRSPLTFGQGTKLEIKR	6.45 nM	0.00129 s⁻¹	200000 M⁻¹ s⁻¹
PD1B1092 (antibody, human IgG1, kappa, V domains shown, IgG1; also called PD1H587/PD1L651; E57W (VH), V29F (VL) variant of PD1B878) VH: QVQLVQSGSELKKPGASVKVSCKASGYTFTDYSMHWVRQAPGQGLEWMGWINIETGWPTYAQGFTGRFVFSLDTSVSTAYLQISSLKAEDTAVYFCARDYYGTYFYAMDYWGQGTLVTVSS VL: EIVLTQSPATLSLSPGERATLSCTASSSFSSSYLHWYQQKPGLAPRLLIYSTSNLASGIPDRFSGSGSGTDYTLTISRLEPEDFAVYYCHQYHRSPLTFGQGTKLEIKR	3.18 nM	0.000411 s⁻¹	129000 M⁻¹ s⁻¹
PD1B1094 (antibody, human IgG1, kappa, V domains shown, IgG1; also called PD1H586/PD1L652; E57H (VH), S30P (VL) variant of PD1B878) VH: QVQLVQSGSELKKPGASVKVSCKASGYTFTDYSMHWVRQAPGQGLEWMGWINIETGHPTYAQGFTGRFVFSLDTSVSTAYLQISSLKAEDTAVYFCARDYYGTYFYAMDYWGQGTLVTVSS VL: EIVLTQSPATLSLSPGERATLSCTASSSVPSSYLHWYQQKPGLAPRLLIYSTSNLASGIPDRFSGSGSGTDYTLTISRLEPEDFAVYYCHQYHRSPLTFGQGTKLEIKR	12 nM	0.00162 s⁻¹	135000 M⁻¹ s⁻¹
PD1B1087 (antibody, human IgG1, kappa, V domains shown, IgG1; also called PD1H587/PD1L469; E57W (VH) variant of PD1B878) VH: QVQLVQSGSELKKPGASVKVSCKASGYTFTDYSMHWVRQAPGQGLEWMGWINIETGWPTYAQGFTGRFVFSLDTSVSTAYLQISSLKAEDTAVYFCARDYYGTYFYAMDYWGQGTLVTVSS VL: EIVLTQSPATLSLSPGERATLSCTASSSVSSSYLHWYQQKPGLAPRLLIYSTSNLASGIPDRFSGSGSGTDYTLTISRLEPEDFAVYYCHQYHRSPLTFGQGTKLEIKR	11.6 nM	0.00247 s⁻¹	212000 M⁻¹ s⁻¹
PD1B1090 (antibody, human IgG1, kappa, V domains shown, IgG1; also called PD1H585/PD1L651; E57Y (VH), V29F (VL) variant of PD1B878) VH: QVQLVQSGSELKKPGASVKVSCKASGYTFTDYSMHWVRQAPGQGLEWMGWINIETGYPTYAQGFTGRFVFSLDTSVSTAYLQISSLKAEDTAVYFCARDYYGTYFYAMDYWGQGTLVTVSS VL: EIVLTQSPATLSLSPGERATLSCTASSSFSSSYLHWYQQKPGLAPRLLIYSTSNLASGIPDRFSGSGSGTDYTLTISRLEPEDFAVYYCHQYHRSPLTFGQGTKLEIKR	1.43 nM	0.000185 s⁻¹	130000 M⁻¹ s⁻¹
PD1B1088 (antibody, human IgG1, kappa, V domains shown, IgG1; also called PD1H405/PD1L651; V29F (VL) variant of PD1B878) VH: QVQLVQSGSELKKPGASVKVSCKASGYTFTDYSMHWVRQAPGQGLEWMGWINIETGEPTYAQGFTGRFVFSLDTSVSTAYLQISSLKAEDTAVYFCARDYYGTYFYAMDYWGQGTLVTVSS VL: EIVLTQSPATLSLSPGERATLSCTASSSFSSSYLHWYQQKPGLAPRLLIYSTSNLASGIPDRFSGSGSGTDYTLTISRLEPEDFAVYYCHQYHRSPLTFGQGTKLEIKR	72.4 nM	0.00479 s⁻¹	66100 M⁻¹ s⁻¹
PD1B1086 (antibody, human IgG1, kappa, V domains shown, IgG1; also called PD1H586/PD1L469; E57H (VH) variant of PD1B878) VH: QVQLVQSGSELKKPGASVKVSCKASGYTFTDYSMHWVRQAPGQGLEWMGWINIETGHPTYAQGFTGRFVFSLDTSVSTAYLQISSLKAEDTAVYFCARDYYGTYFYAMDYWGQGTLVTVSS VL: EIVLTQSPATLSLSPGERATLSCTASSSVSSSYLHWYQQKPGLAPRLLIYSTSNLASGIPDRFSGSGSGTDYTLTISRLEPEDFAVYYCHQYHRSPLTFGQGTKLEIKR	31.8 nM	0.00544 s⁻¹	171000 M⁻¹ s⁻¹
PD1B1091 (antibody, human IgG1, kappa, V domains shown, IgG1; also called PD1H586/PD1L651; E57H (VH), V29F (VL) variant of PD1B878) VH: QVQLVQSGSELKKPGASVKVSCKASGYTFTDYSMHWVRQAPGQGLEWMGWINIETGHPTYAQGFTGRFVFSLDTSVSTAYLQISSLKAEDTAVYFCARDYYGTYFYAMDYWGQGTLVTVSS VL: EIVLTQSPATLSLSPGERATLSCTASSSFSSSYLHWYQQKPGLAPRLLIYSTSNLASGIPDRFSGSGSGTDYTLTISRLEPEDFAVYYCHQYHRSPLTFGQGTKLEIKR	9.32 nM	0.000924 s⁻¹	99100 M⁻¹ s⁻¹
PD1B1093 (antibody, human IgG1, kappa, V domains shown, IgG1; also called PD1H585/PD1L652; E57Y (VH), S30P (VL) variant of PD1B878) VH: QVQLVQSGSELKKPGASVKVSCKASGYTFTDYSMHWVRQAPGQGLEWMGWINIETGYPTYAQGFTGRFVFSLDTSVSTAYLQISSLKAEDTAVYFCARDYYGTYFYAMDYWGQGTLVTVSS VL: EIVLTQSPATLSLSPGERATLSCTASSSVPSSYLHWYQQKPGLAPRLLIYSTSNLASGIPDRFSGSGSGTDYTLTISRLEPEDFAVYYCHQYHRSPLTFGQGTKLEIKR	2.18 nM	0.000368 s⁻¹	169000 M⁻¹ s⁻¹
PD1B1095 (antibody, human IgG1, kappa, V domains shown, IgG1; also called PD1H587/PD1L652; E57W (VH), S30P (VL) variant of PD1B878) VH: QVQLVQSGSELKKPGASVKVSCKASGYTFTDYSMHWVRQAPGQGLEWMGWINIETGWPTYAQGFTGRFVFSLDTSVSTAYLQISSLKAEDTAVYFCARDYYGTYFYAMDYWGQGTLVTVSS VL: EIVLTQSPATLSLSPGERATLSCTASSSVPSSYLHWYQQKPGLAPRLLIYSTSNLASGIPDRFSGSGSGTDYTLTISRLEPEDFAVYYCHQYHRSPLTFGQGTKLEIKR	4.23 nM	0.000781 s⁻¹	185000 M⁻¹ s⁻¹
PD1B1089 (antibody, human IgG1, kappa, V domains shown, IgG1; also called PD1H405/PD1L652; S30P (VL) variant of PD1B878) VH: QVQLVQSGSELKKPGASVKVSCKASGYTFTDYSMHWVRQAPGQGLEWMGWINIETGEPTYAQGFTGRFVFSLDTSVSTAYLQISSLKAEDTAVYFCARDYYGTYFYAMDYWGQGTLVTVSS VL: EIVLTQSPATLSLSPGERATLSCTASSSVPSSYLHWYQQKPGLAPRLLIYSTSNLASGIPDRFSGSGSGTDYTLTISRLEPEDFAVYYCHQYHRSPLTFGQGTKLEIKR	90 nM	0.00839 s⁻¹	93200 M⁻¹ s⁻¹

Target: T2, biotinylated Human PD-1/PDCD1 (Acro Biosystems, Cat# PD1-H82E4) (human, UniProt Q15116 25-167, biotinylated)
T2 construct: Bought reagent; whole mature entry named
Experiment: Fab ELISA, Fab captured by anti-Fd(CH1) antibody, 5 nM biotinylated human PD-1, streptavidin-HRP chemiluminescence
Method: For follow-up screening, plasmid DNA was prepared from overnight culture of the TG-1 Escherichia coli cells and the pIX gene was excised by NheI/SpeI digestion. After ligation, the DNA was transformed into TG-1 cells and grown on LB/Agar plates overnight. The next day, colonies were picked, grown overnight, and the cultures used for (i) colony sequencing of the V- regions, and (ii) induction of Fab production. For Fab production, the overnight culture was diluted 100 folds in new media and grown for 5-6 hours at 37° C. Fab production was induced by the addition of fresh media containing IPTG and the cultures were grown overnight at 30° C. The following day, the cultures were spun down and the supernatants, containing the soluble Fab proteins, were used for Fab ELISA. For the ELISA, the soluble Fab proteins were captured onto plates by a polyclonal anti-Fd(CH1) antibody. After washing and blocking, biotinylated Human PD-1/PDCD1 was added at 5 nM concentration. […] The biotinylated human PD-1 was detected by HRP-conjugated streptavidin with chemiluminescence measured in a plate reader.

T2 sequence (Q15116 25-167 limits assumed): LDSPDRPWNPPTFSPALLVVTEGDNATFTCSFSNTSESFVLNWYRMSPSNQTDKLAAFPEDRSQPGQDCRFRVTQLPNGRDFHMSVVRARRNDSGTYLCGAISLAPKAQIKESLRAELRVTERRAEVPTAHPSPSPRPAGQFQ

Binder	fold change in ELISA binding versus the parental Fab
PD1B878 Fab variant with heavy chain PD1H585 (E57Y) (Fab, V domains shown, Soluble Fab of the non-combinatorial CDR scan) VH: QVQLVQSGSELKKPGASVKVSCKASGYTFTDYSMHWVRQAPGQGLEWMGWINIETGYPTYAQGFTGRFVFSLDTSVSTAYLQISSLKAEDTAVYFCARDYYGTYFYAMDYWGQGTLVTVSS VL: EIVLTQSPATLSLSPGERATLSCTASSSVSSSYLHWYQQKPGLAPRLLIYSTSNLASGIPDRFSGSGSGTDYTLTISRLEPEDFAVYYCHQYHRSPLTFGQGTKLEIK	10 fold
PD1B878 Fab variant with light chain PD1L652 (S30P) (Fab, V domains shown, Soluble Fab of the non-combinatorial CDR scan) VH: QVQLVQSGSELKKPGASVKVSCKASGYTFTDYSMHWVRQAPGQGLEWMGWINIETGEPTYAQGFTGRFVFSLDTSVSTAYLQISSLKAEDTAVYFCARDYYGTYFYAMDYWGQGTLVTVSS VL: EIVLTQSPATLSLSPGERATLSCTASSSVPSSYLHWYQQKPGLAPRLLIYSTSNLASGIPDRFSGSGSGTDYTLTISRLEPEDFAVYYCHQYHRSPLTFGQGTKLEIK	10 fold
PD1B878 Fab variant with light chain PD1L651 (V29F) (Fab, V domains shown, Soluble Fab of the non-combinatorial CDR scan) VH: QVQLVQSGSELKKPGASVKVSCKASGYTFTDYSMHWVRQAPGQGLEWMGWINIETGEPTYAQGFTGRFVFSLDTSVSTAYLQISSLKAEDTAVYFCARDYYGTYFYAMDYWGQGTLVTVSS VL: EIVLTQSPATLSLSPGERATLSCTASSSFSSSYLHWYQQKPGLAPRLLIYSTSNLASGIPDRFSGSGSGTDYTLTISRLEPEDFAVYYCHQYHRSPLTFGQGTKLEIK	10 fold
PD1B878 Fab variant with heavy chain PD1H586 (E57H) (Fab, V domains shown, Soluble Fab of the non-combinatorial CDR scan) VH: QVQLVQSGSELKKPGASVKVSCKASGYTFTDYSMHWVRQAPGQGLEWMGWINIETGHPTYAQGFTGRFVFSLDTSVSTAYLQISSLKAEDTAVYFCARDYYGTYFYAMDYWGQGTLVTVSS VL: EIVLTQSPATLSLSPGERATLSCTASSSVSSSYLHWYQQKPGLAPRLLIYSTSNLASGIPDRFSGSGSGTDYTLTISRLEPEDFAVYYCHQYHRSPLTFGQGTKLEIK	10 fold
PD1B878 Fab variant with heavy chain PD1H587 (E57W) (Fab, V domains shown, Soluble Fab of the non-combinatorial CDR scan) VH: QVQLVQSGSELKKPGASVKVSCKASGYTFTDYSMHWVRQAPGQGLEWMGWINIETGWPTYAQGFTGRFVFSLDTSVSTAYLQISSLKAEDTAVYFCARDYYGTYFYAMDYWGQGTLVTVSS VL: EIVLTQSPATLSLSPGERATLSCTASSSVSSSYLHWYQQKPGLAPRLLIYSTSNLASGIPDRFSGSGSGTDYTLTISRLEPEDFAVYYCHQYHRSPLTFGQGTKLEIK	10 fold
